From US20250114433A1 (published 2025)
Numbering of substitutions follows the chain as printed. One block for each binder: values may come before it.

Assays:
Assay in all cases: cytokine release
[1] = biological target: T1, KRAS G12V (same sequence in NRAS and HRAS G12V) peptide on HLA-A*11:01 (human)
T1 peptide: VVVGAVGVGK

[2] = biological target: T2, KRAS G12V (same sequence in NRAS and HRAS G12V) peptide on HLA-A*11:01 (human)
T2 peptide: VVGAVGVGK

[3] = biological target: T3, KRAS G12D (same sequence in NRAS and HRAS G12D) peptide on HLA-A*11:01 (human)
T3 peptide: VVGADGVGK

[4] = biological target: T4, KRAS G12D (same sequence in NRAS and HRAS G12D) peptide on HLA-A*11:01 (human)
T4 peptide: VVVGADGVGK

binding result [1]: recognises
binding result [2]: recognises
binding result [3]: no recognition
binding result [4]: no recognition
B1: TCR20 (TCR, V domains shown)
Valpha: DAKTTQPPSMDCAEGRAANLPCNHSTISGNEYVYWYRQIHSQGPQYIIHGLKNNETNEMASLIITEDRKSSTLILPHATLRDTAVYYCIVRLNSGNTPLVFGKGTRLSVIA
Vbeta: EAGVAQSPRYKIIEKRQSVAFWCNPISGHATLYWYQQILGQGPKLLIQFQNNGVVDDSQLPKDRFSAERLKGVDSTLKIQPAKLEDSAVYLCASSPTFPAGDRDTQYFGPGTRLTVL

binding result [1]: no recognition
binding result [2]: no recognition
binding result [3]: no recognition
binding result [4]: no recognition
B2: TCR18 (TCR, V domains shown)
Valpha: SQQGEEDPQALSIQEGENATMNCSYKTSINNLQWYRQNSGRGLVHLILIRSNEREKHSGRLRVTLDTSKKSSSLLITASRAADTASYFCATDEGGGADGLTFGKGTHLIIQP
Vbeta: DSGVTQTPKHLITATGQRVTLRCSPRSGDLSVYWYQQSLDQGLQFLIQYYNGEERAKGNILERFSAQQFPDLHSELNLSSLELGDSALYFCASSVTWGPYEQYFGPGTRLTVT

binding result [1]: recognises
binding result [2]: recognises
B3: A11 KRAS TCR_141_6 (TCR, V domains shown)
Valpha: B2 Valpha with E93V, G94F, G95Q, D98Q, G99K, T101V, K104Q, H107R, I109T, Q111N
Vbeta: EAGVAQSPRYKIIEKRQSVAFWCNPISGHATLYWYQQILGQGPKLLIQFQNNGVVDDSQLPKDRFSAERLKGVDSTLKIQPAKLEDSAVYLCASSIETSYEQYFGPGTRLTVT

binding result [1]: no recognition
binding result [2]: no recognition
binding result [3]: no recognition
binding result [4]: recognises
B4: TCR17 (TCR, V domains shown)
Valpha: KVTQAQTEISVVEKEDVTLDCVYETRDTTYYLFWYKQPPSGELVFLIRRNSFDEQNEISGRYSWNFQKSTSSFNFTITASQVVDSAVYFCALSEVHASGGSYIPTFGRGTSLIVHP
Vbeta: DVKVTQSSRYLVKRTGEKVFLECVQDMDHENMFWYRQDPGLGLRLIYFSYDVKMKEKGDIPEGYSVSREKKERFSLILESASTNQTSMYLCASSLGAGQHNSPLHFGNGTRLTVT

binding result [1]: recognises
binding result [3]: no recognition
binding result [4]: no recognition
B5: A11 KRAS TCR_220_21 (TCR, V domains shown)
Valpha: GEDVEQSLFLSVREGDSSVINCTYTDSSSTYLYWYKQEPGAGLQLLTYIFSNMDMKQDQRLTVLLNKKDKHLSLRIADTQTGDSAIYFCAEPIIGGNTPLVFGKGTRLSVIA
Vbeta: GAGVSQSPRYKVAKRGQDVALRCDPISGHVSLFWYQQALGQGPEFLTYFQNEAQLDKSGLPSDRFFAERPEGSVSTLKIQRTQQEDSAVYLCASSSEGLAGGPTAGELFFGEGSRLTVL

binding result [2]: recognises
binding result [3]: no recognition
binding result [4]: no recognition
B6: TCR19 (TCR, V domains shown)
Valpha: DQQVKQNSPSLSVQEGRISILNCDYTNSMFDYFLWYKKYPAEGPTFLISISSIKDKNEDGRFTVFLNKSAKHLSLHIVPSQPGDSAVYFCAASANNNDMRFGAGTRLTVKP
Vbeta: DAGVIQSPRHEVTEMGQEVTLRCKPISGHDYLFWYRQTMMRGLELLIYFNNNVPIDDSGMPEDRFSAKMPNASFSTLKIQPSEPRDSAVYFCASSPTGGGMLGQYFGPGTRLTVL

binding result [1]: recognises
binding result [2]: recognises
B7: A11 KRAS TCR_129_8 (TCR, V domains shown)
Valpha: B6 Valpha with S93N, A94T, N96A, N97G, D98K, M99S, R100T, A103D, R106T
Vbeta: DTGVSQDPRHKITKRGQNVTFRCDPISEHNRLYWYRQTLGQGPEFLTYFQNEAQLEKSRLLSDRFSAERPKGSFSTLEIQRTEQGDSAMYLCASSTGTAEQYFGPGTRLTVT

binding result [1]: recognises
binding result [2]: no recognition
binding result [3]: no recognition
binding result [4]: no recognition
B8: TCR23 (TCR, V domains shown)
Valpha: TQLLEQSPQFLSIQEGENLTVYCNSSSVFSSLQWYRQEPGEGPVLLVTVVTGGEVKKLKRLTFQFGDARKDSSLHITAAQPGDTGLYLCAGVREAGGTSYGKLTFGQGTILTVHP
Vbeta: DAEITQSPRHKITETGRQVTLACHQTWNHNNMFWYRQDLGHGLRLIHYSYGVQDTNKGEVSDGYSVSRSNTEDLPLTLESAASSQTSVYFCASSEYVGAHEQYFGPGTRLTVT

binding result [4]: recognises
B9: A11 KRAS TCR_141_7 (TCR, V domains shown)
Valpha: AQSVTQPDIHITVSEGASLELRCNYSYGATPYLFWYVQSPGQGLQLLLKYFSGDTLVQGIKGFEAEFKRSQSSFNLRKPSVHWSDAAEYFCAVTGGGNKLTFGTGTQLKVEL
Vbeta: DTGVSQDPRHKITKRGQNVTFRCDPISEHNRLYWYRQTLGQGPEFLTYFQNEAQLEKSRLLSDRFSAERPKGSFSTLEIQRTEQGDSAMYLCASSLAGETGELFFGEGSRLTVL

binding result [1]: no recognition
binding result [2]: no recognition
binding result [3]: no recognition
binding result [4]: recognises
B10: A11_TCR16 (TCR, V domains shown)
Valpha: KDQVFQPSTVASSEGAVVEIFCNHSVSNAYNFFWYLHFPGCAPRLLVKGSKPSQQGRYNMTYERFSSSLLILQVREADAAVYYCVLNRDDKIIFGKGTRLHILP
Vbeta: DAGVIQSPRHEVTEMGQEVTLRCKPISGHDYLFWYRQTMMRGLELLIYFNNNVPIDDSGMPEDRFSAKMPNASFSTLKIQPSEPRDSAVYFCASSRLGPYNEQFFGPGTRLTVL

binding result [4]: recognises
B11: A11 KRAS TCR_129_2 (TCR, V domains shown)
Valpha: SQQGEEDPQALSIQEGENATMNCSYKTSINNLQWYRQNSGRGLVHLILIRSNEREKHSGRLRVTLDTSKKSSSLLITASRAADTASYFCASSGGGADGLTFGKGTHLIIQP
Vbeta: KAGVTQTPRYLIKTRGQQVTLSCSPISGHRSVSWYQQTPGQGLQFLFEYFSETQRNKGNFPGRFSGRQFSNSRSEMNVSTLELGDSALYLCASSLGGAGETQYFGPGTRLLVL

binding result [1]: no recognition
binding result [2]: no recognition
binding result [3]: no recognition
binding result [4]: recognises
B12: A11_TCR22 (TCR, V domains shown)
Valpha: QKEVEQDPGPLSVPEGAIVSLNCTYSNSAFQYFMWYRQYSRKGPELLMYTYSSGNKEDGRFTAQVDKSSKYISLFIRDSQPSDSATYLCAMSAGAAGNKLTFGGGTRVLVKP
Vbeta: EADIYQTPRYLVIGTGKKITLECSQTMGHDKMYWYQQDPGMELHLIHYSYGVNSTEKGDLSSESTVSRIRTEHFPLTLESARPSHTSQYLCASSQGLYNEQFFGPGTRLTVL

binding result [1]: no recognition
binding result [2]: no recognition
binding result [3]: no recognition
binding result [4]: recognises
B13: TCR21 (TCR, V domains shown)
Valpha: B12 Valpha with A93G, A95N, K99M, V108L, L109M
Vbeta: B12 Vbeta with Q95V
